According to patent US20030144205A1:

Target: T1, mouse RFPL4, full-length (amino acid residues 1-287) (mouse) (UniProt Q8VH31)
T1 sequence (looked up): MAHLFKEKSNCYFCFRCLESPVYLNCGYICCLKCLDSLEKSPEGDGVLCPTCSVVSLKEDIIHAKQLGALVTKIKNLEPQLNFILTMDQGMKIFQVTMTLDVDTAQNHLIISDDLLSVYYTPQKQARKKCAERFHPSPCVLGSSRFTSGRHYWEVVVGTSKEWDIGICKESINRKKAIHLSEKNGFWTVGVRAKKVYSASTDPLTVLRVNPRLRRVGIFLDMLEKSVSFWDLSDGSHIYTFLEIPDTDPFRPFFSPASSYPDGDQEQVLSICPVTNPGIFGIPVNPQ
Assay: yeast two-hybrid mating screen of the ovary cDNA library with pGBKT7-RFPL4 as bait

B1: Phosphoserine/threonine/tyrosine interaction protein (STYX) (protein, mouse, UniProt Q60969 1-223, looked up)
chain: MEDVKLEFPSLPQCKDDAEEWTYPMRREMQEVLPGLFLGPYSSAMKSKLPILQKHGITHIICIRQNIEANFIKPNFQQLFRYLVLDIADNPVENIIRFFPMTKEFIDGSLQNGGKVLVHGNAGISRSAAFVIAYIMETFGMKYRDAFAYVQERRFCINPNAGFVHQLQEYEAIYLAKLTIQMMSPLQIERSLAVHSGTTGSVKRTHEEDDDFGNMQVATAQNG
A # of clones of 1 clones was found for B1 in this work.
